2 molecules from paper PMC7539009, “Mechanism and evolution of the Zn-fingernail required for interaction of VARP with VPS29” (Nature Communications, 2020) can be followed below.

Some results are limits rather than exact numbers.

Test [1] addresses VPS29 (short isoform, N-terminal sequence MLVL), untagged (UniProt Q9UBQ0-1 1-182). Nature of the test: SPR; Biacore T200; GST fusion captured on goat anti-GST antibody coupled to a CM5 chip, GST-CLA on the blank flow cell; VPS29 as analyte, typically 40 to 0.3 μM; 20 mM Tris, 200 mM NaCl, 0.1 mM TCEP, 0.5 μM ZnCl2, pH 7.4; 12 °C for the KD of 2–3 µM; equilibrium and kinetic analysis, single site. The note with it: both partners purified.

Test [2] addresses long VPS29 (isoform with the N-terminal sequence …) (UniProt Q9UBQ0-2 1-186). The test is described as above. The note with it: both partners purified.

B1: GST-VARP residues 692-746, 4C mutant (all four Cys to Ser) (domain or fragment)
chain: TEEDLEDAEDTVSAADPEFSHPLSQSPKSAPAQKRLAKVPASGLGVNVTSQDGSSW
notes: non-native Trp residue numbered 747; source: E. coli BL21 (DE3) pLysS, pGEX6P1, purified (GST-Sepharose, S75 Superdex gel filtration); not shown: GST, N-terminal, kept
By Kd is commonly meant the equilibrium constant for the complex coming apart. A high value points to a looser complex. The molecule B1 registered a Kd in test [1] of 55 µM.

B2: GST-TBC1D5 (residues 132–156) (domain or fragment)
chain: GQQDLMINNPLSQDEGSLWNKFFQD
notes: TBC1D5 residues 132-156, holds the Asn Pro Leu motif and the short helix upstream of it; also called TBC1D5 (132–156); not shown: GST, N-terminal, kept
Consider B2, for which the results for the equilibrium dissociation constant (Kd) in test [2] and in test [1] were around 67 µM and above 300 µM, respectively.
